Data: US20040248198A1 (ST JUDE CHILDREN S RESEARCH HOSPITAL, published 2004)
Where no end group is shown, it is not given here.

B1: A1 peptide (human p14ARF 1-14, SEQ ID NO:26, MVRRFLVTLRIRRA) (peptide)
peptide: Ac-MVRRFLVTLRIRRA-NH2
notes: Synthetic peptide; also called human A1 (1-14)
B2: 41-55 (peptide)
peptide: AFVNMLLRLERILRR
modifications: not fully specified
notes: also called mouse p19Arf library peptide, residues 41-55
B3: H1 peptide (Hdm2 240-254, SEQ ID NO:27, SVSDQFSVEFEVESL) (peptide)
peptide: Ac-SVSDQFSVEFEVESL-NH2
notes: Synthetic peptide
B4: 11-25 (peptide)
peptide: IQRAGRPLQERVFLV
modifications: not fully specified
notes: also called mouse p19Arf library peptide, residues 11-25

How the values were obtained:
[1] = target: B3; test: CD and 1H NMR titration
Description: (§1) CD spectra were recorded with an Aviv 62DS instrument in 5 mM potassium phosphate (pH 7.0) using a 1 mm cuvette. In FIG. 1A, A1 was 4.5 μM, molar ratios were: 1:0.0, 1:0.1, 1:0.6, 1:0.9, & 1:1.3. In FIG. 1B, H1 was 2.5 μM, molar ratios were: 1:0.2, 1:0.7, 1:1.0, & 1:1.3. Data was collected for 3 seconds in 1 nm steps and 10 scans were averaged for each spectrum. The appearance of a minimum in the CD spectra of the assemblies near […] and the increase in ellipticity near 200 nm is consistent with the formation of β-strand-containing structures.
(§2) An end point was reached when the molar ratio of A1:H1 was 1:1. For example, further additions of the H1 peptide led to the appearance of disordered spectral features consistent with unbound, free H1 peptide (inset, FIG. 6a). The Fourier transform infrared (FT-IR) spectrum of the co-assemblies confirms the CD results and allows the β-structures to be classified as anti-parallel β-strands on the basis of the absorbances at 1618 cm-1 and 1679 cm-1 (FIG. 7) [Casal, H. L.; Kohler, U.; Mantsch, H. H., Biochim Biophys Acta 957:11-20 (1988)]. In summary, the individually disordered A1 and H1 peptides self-assemble into supramolecular structures comprised of anti-parallel β-strands.

His-tagged Hdm2 210-304 = target: T1, His-tagged Hdm2 210-304 (human, UniProt Q00987 210-304); test: SPR (Biacore), His-tagged Hdm2 210-304 captured by anti-His antibody, mouse Arf peptide as analyte, reference cell subtracted
T1 construct: not shown: thrombin-cleavable poly-His tag from pET28a
Description: Surface Plasmon Resonance. Binding studies were performed using a Biacore 3000 surface plasmon resonance (SPR) instrument (Biacore, Inc.). A Tetra-His™ Antibody (Qiagen, Inc.; Cat. #34670) was covalently attached to a carboxymethylated gold surface (C-1 chip; Biacore, Inc.). The carboxymethyl groups on the surface were activated with N-ethyl-N-(3-dimethylaminopropyl) carbodiimide (EDC) and N-hydroxysuccinimide (NHS) and the antibody was attached at pH 7.4 in 20 mM sodium phosphate buffer, 150 mM NaCl (PBS). Reactive sites remaining on the surface were blocked by reaction with ethanolamine. The His-tagged ligand was attached to the antibody by injecting a […] solution of the ligand in 10 mM HEPES, 150 mM NaCl, pH 7.4 (HBS-N buffer, Biacore) at a flow rate of 10 μL/Min through the flow cell. A reference cell was prepared similarly except that no His-tagged ligand was added. Binding was measured by flowing the non-His-tagged analyte through the reference and ligand-containing flow cells in sequence. Prior to injection of ligands, the chip surfaces were equilibrated in HBS-N buffer. Changes in the SPR response due to solvent differences and the injection process were monitored by injection of HBS-N buffer alone. Regeneration of the chip surface to remove bound analyte and ligand was accomplished by two 100 μL injections of 10 mM glycine, pH 2.0 through both flow cells. Data reported is-the difference in SPR signal between the flow cell containing analyte and the reference cell. Duplicate injections were made and the SPR response values reported are the average of these two injections.
Two libraries of peptides 15 amino acids in length were synthesized based on the sequence of exon 1β of mouse p19^Arf and the entire sequence of human p14^Arf. The sequence for the first peptide in each library corresponded to the first 15 amino acids of the protein sequences. […] This approach yielded two libraries of overlapping peptides spanning mouse p19^Arf residues 1-64 and human p14^Arf residues 1-132. The ability of these peptides to bind Hdm2 fragments was determined using the surface plasmon resonance (SPR) technique with a Biacore 3000 instrument.

[2] = target: B1; test: CD titration, H1 peptide added stepwise to A1 peptide
Description: as §1, §2

T1 sequence (Q00987 210-304): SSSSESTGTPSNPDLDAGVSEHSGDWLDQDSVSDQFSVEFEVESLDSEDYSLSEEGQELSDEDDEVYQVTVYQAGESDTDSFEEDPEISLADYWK

binding result (His-tagged Hdm2 210-304)	Binder	further results
–	B1	molar ratio A1:H1 at the end point of the titration [1]: 1 mol A1 per mol H1
no binding (tested: not given)	B2	–
–	B3	binding result [2]: binds
no binding (tested: not given)	B4	–
